Target: T1, Keap1 Kelch domain (amino acid residues 309 to 624) (human, UniProt Q14145 309-624)
T1 construct: Keap1, Kelch domain, Gene ID 9817 (the human gene), amino acid residues 309 to 624; The species is not put in words; it follows from the printed Gene ID 9817; also called Kelch domain of Keap1; source: E. coli BL21 (Codonplus), purified (Ni-NTA, HiTrap QHP, Superdex 200 Increase)
Experiment: native gel or EMSA; purified Kelch, Δ54‐PGAM5 and ponicidin incubated on ice for 30 min; 7% non‐denatured gel, 4 °C, 90 V, 1 h; Coomassie staining
Conditions: both partners purified

T1 sequence (Q14145 309-624): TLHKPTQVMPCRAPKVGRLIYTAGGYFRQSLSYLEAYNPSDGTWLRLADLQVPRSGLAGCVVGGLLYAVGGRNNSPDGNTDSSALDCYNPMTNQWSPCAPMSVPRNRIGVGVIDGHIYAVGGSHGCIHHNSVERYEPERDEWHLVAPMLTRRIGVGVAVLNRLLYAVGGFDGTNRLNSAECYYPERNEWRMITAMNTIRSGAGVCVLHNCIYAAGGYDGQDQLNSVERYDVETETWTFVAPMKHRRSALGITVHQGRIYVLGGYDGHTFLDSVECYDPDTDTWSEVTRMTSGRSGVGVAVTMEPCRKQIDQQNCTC

binding result: binds
B1: ∆54‐PGAM5 (amino acids from number 54 to 289) (domain or fragment, human, UniProt Q96HS1 54-289, looked up)
chain: GPGVWDPNWDRREPLSLINVRKRNVESGEEELASKLDHYKAKATRHIFLIRHSQYHVDGSLEKDRTLTPLGREQAELTGLRLASLGLKFNKIVHSSMTRAIETTDIISRHLPGVCKVSTDLLREGAPIEPDPPVSHWKPEAVQYYEDGARIEAAFRNYIHRADARQEEDSYEIFICHANVIRYIVCRALQFPPEGWLRLSLNNGSITHLVIRPNGRVALRTLGDTGFMPPDKITRS
notes: PGAM5, Gene ID 192111 (the human gene), amino acid residues 54 to 289; The species is not put in words; it follows from the printed Gene ID 192111; also called Δ54‐PGAM5; PGAM5 domain; source: E. coli BL21 (Codonplus), purified (Ni-NTA, HiTrap QHP, Superdex 200 Increase)
